First the molecules themselves.
T1: SPO11 (beta isoform), WT, in complex with TOP6BL;TOP6BL (Mus musculus;Mus musculus, UniProt Q9WTK8;J3QMY9 1-396;1-579, |)
T1 sequence 1: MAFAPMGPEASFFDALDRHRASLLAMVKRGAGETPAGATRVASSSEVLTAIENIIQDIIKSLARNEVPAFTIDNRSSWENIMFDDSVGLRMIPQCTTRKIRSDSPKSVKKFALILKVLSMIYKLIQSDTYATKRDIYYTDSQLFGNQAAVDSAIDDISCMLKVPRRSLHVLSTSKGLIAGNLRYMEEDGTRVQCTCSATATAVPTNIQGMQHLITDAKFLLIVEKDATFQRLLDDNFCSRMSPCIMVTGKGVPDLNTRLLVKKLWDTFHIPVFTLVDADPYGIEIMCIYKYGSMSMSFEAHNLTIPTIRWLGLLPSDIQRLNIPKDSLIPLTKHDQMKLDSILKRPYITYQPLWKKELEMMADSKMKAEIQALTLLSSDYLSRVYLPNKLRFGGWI
T1 sequence 2: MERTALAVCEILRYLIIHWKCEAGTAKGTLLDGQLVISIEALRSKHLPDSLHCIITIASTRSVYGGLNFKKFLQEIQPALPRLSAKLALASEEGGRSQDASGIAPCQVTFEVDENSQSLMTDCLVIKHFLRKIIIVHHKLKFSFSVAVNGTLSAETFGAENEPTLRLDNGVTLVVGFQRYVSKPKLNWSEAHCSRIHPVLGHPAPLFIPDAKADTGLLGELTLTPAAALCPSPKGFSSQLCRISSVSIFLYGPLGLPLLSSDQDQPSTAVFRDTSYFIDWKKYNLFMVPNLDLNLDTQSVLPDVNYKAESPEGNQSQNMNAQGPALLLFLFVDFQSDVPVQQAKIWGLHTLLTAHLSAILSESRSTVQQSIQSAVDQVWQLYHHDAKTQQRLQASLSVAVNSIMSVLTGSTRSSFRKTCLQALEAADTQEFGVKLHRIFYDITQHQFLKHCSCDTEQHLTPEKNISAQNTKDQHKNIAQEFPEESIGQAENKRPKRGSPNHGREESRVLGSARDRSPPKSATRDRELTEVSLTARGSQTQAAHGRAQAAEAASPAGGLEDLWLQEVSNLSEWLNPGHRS

B1: Flag-tagged mouse SPO11 (natural protein, UniProt Q9WTK8-1 1-396, looked up)
chain: T1 sequence 1
notes: SPO11, mouse, b splicing isoform (includes exon 2), full-length optimized coding DNA; A TEV cleavage site stands between the Flag tag and SPO11; no cleavage is described; also called FlagSPO11; SPO11b; not shown: Flag, N-terminal, kept
B2: oligonucleotide cleavage substrate, 44 bp duplex with A4 loops (structured_DNA)
DNA: CGGTTCAAAAGAACCGGAGCTGAATGAAGCCATACCAAACGACGAGCGTGACACAAAAGTGTCACGCTCGTCGTTTGGTATGGCTTCATTCAGCTC
modifications: circular, ligated by T4 DNA ligase
B3: mouse TOP6BL (Topoisomerase VIB-like) (natural protein, UniProt J3QMY9-1 1-579, looked up)
chain: T1 sequence 2
notes: TOP6BL, mouse, untagged, full-length optimized coding DNA

Data set [1] deals with B3. Kind of data set: mass photometry; Refeyn OneMP; 28 nM protein; 25 mM HEPES-NaOH pH 7.5, 150 mM NaCl, 2 mM DTT; with 5 mM ATP. As to conditions: both partners purified.
Data set [2] addresses T1, SPO11 (beta isoform), WT, in complex …. Put plainly: EMSA; apparent Kd (first monomer complex); 5 mM Mg2+, 4 C, 50 mM NaCl; doubly bound complexes form; EMSA: 25 mM Tris-HCl pH 7.5, 100 mM NaCl, 5 mM MgCl2, 2 mM DTT, 7.5% glycerol, 1 mg/ml BSA, 0.1 nM DNA, 30 C 30 min; cleavage substrate: 25 mM HEPES-NaOH pH 7.5, 50 mM NaCl, 5 mM MgCl2, 2 mM DTT, 7.5% glycerol, 1 mg/ml BSA, 4 C 30 min. The note with it: protein: recombinant;recombinant; tags: N-terminal Flag-TEV;untagged; copies: 1;1; label: internal 32P (5'-labeled before ligation); closed dumbbell, 44 bp duplex, A4 loop at both ends. (In EMSA bound probe runs differently from free probe, usually more slowly.)

The data set “Flag-tagged mouse SPO11” deals with B1. Kind of data set: SEC; Superdex 200 Increase 10/300 GL after anti-Flag M2 affinity purification of the co-expressed proteins; lysis buffer 25 mM HEPES-NaOH pH 7.5, 500 mM NaCl. As to conditions: both partners purified. For orientation: SEC sorts molecules by how far they enter the pores of the column.

Experimental findings from paper doi:10.1101/2024.11.20.624382, “Reconstitution of SPO11-dependent double-strand break formation” (bioRxiv, 2024) are described below.

Regarding B1, in data set [1], the binding result was “binds”.
With B2, in data set [2], the Kd turned out to be 1.8 nM.
The stoichiometry N is the number of molecules, sites or subunits per partner or assembly. For B3, the “stoichiometry N” value with Flag-tagged mouse SPO11 was 1.
